{
  "source": "paper PMC9391581",
  "about": "“Mutated KLF4(K409Q) in meningioma binds STRs and activates FGF3 gene expression”",
  "binders": {"B1": {"name": "TRH-122M (dsDNA)", "DNA 1": "GAGCAGGCGGGCGGGGCCCCGC", "DNA 2": "GCGGGGCCCCGCCCGCCTGCTC"}, "B2": {"name": "TRH-122 (dsDNA)", "DNA 1": "GAGCAGGCGGGCGGGGTCCCGC", "DNA 2": "GCGGGACCCCGCCCGCCTGCTC"}, "B3": {"name": "FGF3-201M (dsDNA)", "DNA 1": "CCTTTAATGGGTGTGTGTCAGC", "DNA 2": "GCTGACACACACCCATTAAAGG"}},
  "details_in_all_cases": "protein: recombinant; tags: MBP; label: 32P 5' end",
  "key": {"[1]": {"target": "T1, MBP-KLF4 full length (human, UniProt O43474-1 1-479)", "T1 sequence (O43474 other isoform, or with tags, fused parts or gaps)": "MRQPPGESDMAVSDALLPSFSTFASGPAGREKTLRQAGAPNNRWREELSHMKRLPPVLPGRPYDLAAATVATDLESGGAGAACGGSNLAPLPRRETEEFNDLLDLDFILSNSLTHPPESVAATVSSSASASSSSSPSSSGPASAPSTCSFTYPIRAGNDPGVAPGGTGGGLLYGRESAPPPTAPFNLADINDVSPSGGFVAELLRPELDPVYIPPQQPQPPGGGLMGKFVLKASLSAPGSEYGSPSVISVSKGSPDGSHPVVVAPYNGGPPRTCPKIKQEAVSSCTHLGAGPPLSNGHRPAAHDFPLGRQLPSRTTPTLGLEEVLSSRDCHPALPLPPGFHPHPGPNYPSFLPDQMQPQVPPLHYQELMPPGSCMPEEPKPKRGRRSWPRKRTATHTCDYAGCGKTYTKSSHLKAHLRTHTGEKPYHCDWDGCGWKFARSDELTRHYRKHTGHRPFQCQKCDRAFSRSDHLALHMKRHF", "experiment": "EMSA; same strong binding as TRH-122; EMSA: 10 mM Tris-HCl pH 7.5, 53 mM NaCl, 1 mM DTT, 0.01% NP40, 5% glycerol, protein inhibitors, RT 30 min; footprinting: 110 ng to 3 ug protein, RT 30 min, 0.3"}, "[2]": {"target": "T2, MBP-KLF4 DBD (human, UniProt O43474-1 375-479)", "T2 sequence (O43474 409-513)": "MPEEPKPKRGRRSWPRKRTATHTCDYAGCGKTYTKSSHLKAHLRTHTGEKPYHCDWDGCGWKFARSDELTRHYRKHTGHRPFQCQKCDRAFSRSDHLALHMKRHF", "experiment": "EMSA; same strong binding as TRH-122; EMSA: 10 mM Tris-HCl pH 7.5, 53 mM NaCl, 1 mM DTT, 0.01% NP40, 5% glycerol, protein inhibitors, RT 30 min; footprinting: 110 ng to 3 ug protein, RT 30 min, 0.3"}, "[3]": {"target": "T3, MBP-KLF4 K409Q full length (human, UniProt O43474-1 1-479, K409Q)", "T3 sequence (O43474 other isoform, or with tags, fused parts or gaps K409Q | K409Q K409Q)": "as the sequence (O43474 other isoform, or with tags, fused parts or gaps) above, with K409Q counted along it", "experiment": "EMSA; EMSA: 10 mM Tris-HCl pH 7.5, 53 mM NaCl, 1 mM DTT, 0.01% NP40, 5% glycerol, protein inhibitors, RT 30 min; footprinting: 110 ng to 3 ug protein, RT 30 min, 0.3"}, "[4]": {"target": "T1, MBP-KLF4 full length", "experiment": "EMSA; EMSA: 10 mM Tris-HCl pH 7.5, 53 mM NaCl, 1 mM DTT, 0.01% NP40, 5% glycerol, protein inhibitors, RT 30 min; footprinting: 110 ng to 3 ug protein, RT 30 min, 0.3"}, "[5]": {"target": "T2, MBP-KLF4 DBD", "experiment": "EMSA; EMSA: 10 mM Tris-HCl pH 7.5, 53 mM NaCl, 1 mM DTT, 0.01% NP40, 5% glycerol, protein inhibitors, RT 30 min; footprinting: 110 ng to 3 ug protein, RT 30 min, 0.3"}, "[6]": {"target": "T3, MBP-KLF4 K409Q full length", "experiment": "EMSA; stronger than FGF3-201; EMSA: 10 mM Tris-HCl pH 7.5, 53 mM NaCl, 1 mM DTT, 0.01% NP40, 5% glycerol, protein inhibitors, RT 30 min; footprinting: 110 ng to 3 ug protein, RT 30 min, 0.3"}, "[7]": {"target": "MBP-KLF4 K409Q DBD (human, UniProt O43474-1 375-479, K409Q)", "sequence (O43474 409-513 K443Q)": "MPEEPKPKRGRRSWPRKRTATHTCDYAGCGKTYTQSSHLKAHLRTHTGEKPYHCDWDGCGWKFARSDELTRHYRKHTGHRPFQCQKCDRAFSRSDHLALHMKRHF", "experiment": "EMSA; stronger than FGF3-201; EMSA: 10 mM Tris-HCl pH 7.5, 53 mM NaCl, 1 mM DTT, 0.01% NP40, 5% glycerol, protein inhibitors, RT 30 min; footprinting: 110 ng to 3 ug protein, RT 30 min, 0.3"}},
  "data": [
    {"binder": "B1", "values": [
      {"measurement": "binding result", "setting": "[1]", "result": "binds"},
      {"measurement": "binding result", "setting": "[2]", "result": "binds"}
    ]},
    {"binder": "B2", "values": [
      {"measurement": "binding result", "setting": "[3]", "result": "binds"},
      {"measurement": "binding result", "setting": "[4]", "result": "binds"},
      {"measurement": "binding result", "setting": "[5]", "result": "binds"}
    ]},
    {"binder": "B3", "values": [
      {"measurement": "binding result", "setting": "[6]", "result": "binds"},
      {"measurement": "binding result", "setting": "[7]", "result": "binds"}
    ]}
  ]
}
